Biological target: ERp29 (ER protein of 29 kDa; mouse, Min-6 insulinoma cells) (mouse (endogenous in Min-6)) (UniProt P57759)
Test: co-IP; Min-6 lysate, non-denaturing; 50 ug lysate protein, 2 ul primary antibody 1 h, Protein G agarose 2 h at room temperature; precipitated Proinsulin quantified by Mercodia rat/mouse Proinsulin ELISA; controls: no antibody, anti-V5

Proinsulin (mouse, Min-6 insulinoma cells) (natural protein)
fold precipitation of Proinsulin over the anti-V5 control: > 10 fold

From paper PMC7239452
